According to the domain aggregation screens of Martell et al. (2025):

Assay: soluble fraction after stress (log2 fold change); higher = more stays soluble; pooled small domains, quantitative proteomics
Settings: stress: pH 4
How it was run: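 Aggregation propensity here comes from the fold change in the soluble amount of each small protein domain after acid stress, measured in pooled custom libraries by high-throughput quantitative proteomics. The acid stress was pH 4. On the log2 scale, higher values mean more of the domain stayed soluble.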

Sequence	soluble fraction (log2)
HMKYGPSTVAVLTVVRESEMGAFLDAETGRTNDDILLHKTQQTEPVHIGDQVKVFLYLDPKHRLTASMRVP	-1.24
HMKYNETEFKNLVAKLYNGEIEIVGKFTGLSYPILVKDKYGIMLSQKANLILNYRPTINIALNKTEYAMN	-0.4
HMKYSELLLEIILQSKEHPTAEQIFIEAKKRNPKIVQATVYNNLKNLLAQGRVIRISNPGQPDRYDNT	0.0505
HMKYVDYYATLGVARDADLATITKAYRKLARQTHPDLNQGADNEARFKAAAEAYATLKHPEKRAAYDELGQ	0.117
HMKYWTISDLYSKLEEDQVELGAFSEDSNKVTVLDRQGYEHVIKILSSDVPALTELFRKKKVRFAVAG	0.0959
HMKYYIYQGVGASGELTKIAEVTDQKTYTVTGLQAKTTYRFAVSSYNGLRESTKSNIVTVTT	0.22
HMLAAAVVVYATDKVNVRAEASETADVIGQLEAGSQTTRLEDKDGWSRIDYSNGTQGYMKSEFLSTEAPT	-0.622
HMLADEPTGALDSKTSVQIMALLTEIAQDRLVIMVTHNPELADEYATRIVNLRDGVISDDSDPFNP	-0.289
HMLAEEAFNKQAATAGYVYRDGSYHPAASVAQYDAMPRNYRTNTMAQELSRSQVESQLQQSQ	-0.104
HMLAGKTYEVQTESGGKWTLVASYNVKSQAIQQAQALLESHKYSGVKVIAESDRKGEEVIFNEQSEVT	0.104
HMLALKSGQVVVGTIIRRLDNTTAMLRIGNQLFETSFAKGLPKSNHILLRYDAMQGNRFIFTMVE	-0.063
HMLANLNKELQNDAALLKQKAQGNSNLLAKIQDVEQQMKQVNTSSASDEAKAKELQTLQRKLTAYKKALA	-0.0638
HMLAVSVDKDGKVYIQDSETAVDAVTAKLRAISGNNSEIRIFVRGDADVNYGRIMEIMGVINAAGFRKVAL	-0.78
HMLDEIAGQKVRVLEEINNSEGTGKVMYRGVEWMARSVDDAVMAKDSIVTVQSISGVKLMVT	-0.498
HMLDEKAVRQYLLNTLENSEIKMDRQAIDLFLRLTDLDLSKMMRELQKILLYGQEQEVITVKEIEQ	-1.17
HMLDGFEVGMTVMKKSGTEIGFTGWPSFADKDELPIIERIDTSDSTLLLKFKDMSWWIKASLVEPS	-0.396
HMLDLPEISARIMEVFETKDRATISELSKLTGTNINTIKKHLSSLVENNYLIKHGKTRGAWYTKST	-0.271
HMLDLVSIGKRIKAERQKNGLTQEALAERIEVSAHYVYELERGLKAMSVPILLRMSEVLHTSTDYLLF	-0.48
HMLDNHPQSKKIRALWLEMAAAGVVRDSSEQALALWVKRETGISALRWLSNEQASSVIEKLKKWQRRAAG	-0.0161
HMLDPKVFVGKAGINEGIAKLLLQAFDKADLVKVRFTAERDVMETQMQELARLTGSEVIGNVGRTATF	0.168
HMLEAMDSDEAAKVIEQIVNERADFVRSKGMGAIGPLMGPVMGALRGKVDGKQANELLTAAIKKLL	0.177
HMLEASVYTAEKSGDRLDAFLAEQAGITRSYAQKLIEGGQVTLGGVVPKKNYKLSAGEQVELILPEN	-0.00206
HMLEKVLDNHIHKLRLQHKISQQELADAIGVSRKTISTVETGRFTPSVVIALKIAAHFSVSVEQVFTL	-0.187
HMLEPEVLDLIGQVKSVHHFSVTQSHQLEKLVRHAHTLGFEIAELKSLLASSPNAKSLLSSLDQKLEPLRM	0.0896
HMLEQEQFESKLLKAINNINETQRIAFLMHRIDGKKYAEIASELNISVKAVEKRIHLALIELKKEIENF	-0.396
HMLEQISDINILSGYAKEVIAENPKTVSDYLSGKAAAFQALVGQVMKKTGGRGNPVIIQEILKRLIHKK	-0.182
HMLERKPVLVASRDLPALAVIGKDDLSVELLRTAPVGSYDRPEALLGKRVWVAVPAGSILSAATLEP	-0.0428
HMLERPLKLKSHYVSTIYEKVAVQYSEGEEKKSVMGTLIEVNQDTIVLDDRGTIIEIPFKSITRAKTVF	-0.364
